{"source": "paper PMC4240654", "about": "(2014)", "data": [{"molecular_target": "Factor IXa (Homo sapiens, UniProt P00740)", "sequence (P00740 47-191)": "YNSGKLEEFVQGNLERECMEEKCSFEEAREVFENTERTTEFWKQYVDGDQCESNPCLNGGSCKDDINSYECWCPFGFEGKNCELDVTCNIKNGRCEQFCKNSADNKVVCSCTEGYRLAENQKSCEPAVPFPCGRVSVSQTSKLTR", "experiment": "FXa generation assay", "units": {"Kd": "nM"}, "values": [{"binder": "BDD rFVIIIa (ReFacto) (protein, B-domain deleted, thrombin-activated) chain 1: ATRRYYLGAVELSWDYMQSDLGELPVDARFPPRVPKSFPFNTSVVYKKTLFVEFTDHLFNIAKPRPPWMGLLGPTIQAEVYDTVVITLKNMASHPVSLHAVGVSYWKASEGAEYDDQTSQREKEDDKVFPGGSHTYVWQVLKENGPMASDPLCLTYSYLSHVDLVKDLNSGLIGALLVCREGSLAKEKTQTLHKFILLFAVFDEGKSWHSETKNSLMQDRDAASARAWPKMHTVNGYVNRSLPGLIGCHRKSVYWHVIGMGTTPEVHSIFLEGHTFLVRNHRQASLEISPITFLTAQTLLMDLGQFLLFCHISSHQHDGMEAYVKVDSCPEEPQLRMKNNEEAEDYDDDLTDSEMDVVRFDDDNSPSFIQIRSVAKKHPKTWVHYIAAEEEDWDYAPLVLAPDDRSYKSQYLNNGPQRIGRKYKKVRFMAYTDETFKTREAIQHESGILGPLLYGEVGDTLLIIFKNQASRPYNIYPHGITDVRPLYSRRLPKGVKHLKDFPILPGEIFKYKWTVTVEDGPTKSDPRCLTRYYSSFVNMERDLASGLIGPLLICYKESVDQRGNQIMSDKRNVILFSVFDENRSWYLTENIQRFLPNPAGVQLEDPEFQASNIMHSINGYVFDSLQLSVCLHEVAYWYILSIGAQTDFLSVFFSGYTFKHKMVYEDTLTLFPFSGETVFMSMENPGLWILGCHNSDFRNRGMTALLKVSSCDKNTGDYYEDSYEDISAYLLSKNNAIEPR chain 2: SFQKKTRHYFIAAVERLWDYGMSSSPHVLRNRAQSGSVPQFKKVVFQEFTDGSFTQPLYRGELNEHLGLLGPYIRAEVEDNIMVTFRNQASRPYSFYSSLISYEEDQRQGAEPRKNFVKPNETKTYFWKVQHHMAPTKDEFDCKAWAYFSDVDLEKDVHSGLIGPLLVCHTNTLNPAHGRQVTVQEFALFFTIFDETKSWYFTENMERNCRAPCNIQMEDPTFKENYRFHAINGYIMDTLPGLVMAQDQRIRWYLLSMGSNENIHSIHFSGHVFTVRKKEEYKMALYNLYPGVFETVEMLPSKAGIWRVECLIGEHLHAGMSTLFLVYSNKCQTPLGMASGHIRDFQITASGQYGQWAPKLARLHYSGSINAWSTKEPFSWIKVDLLAPMIIHGIKTQGARQKFSSLYISQFIIMYSLDGKKWQTYRGNSTGTLMVFFGNVDSSGIKHNIFNPPIIARYIRLHPTHYSIRSTLRMELMGCDLNSCSMPLGMESKAISDAQITASSYFTNMFATWSPSKARLHLQGRSNAWRPQVNNPKEWLQVDFQKTMKVTGVTTQGVKSLLTSMYVKEFLISSSQDGHQWTLFFQNGKVKVFQGNQDSFTPVVNSLDPPLLTRYLRIHPQSWVHQIALRMEVLGCEAQDLY", "Kd": 4.5}, {"binder": "rFVIIIFc (thrombin-activated) (protein, Fc fusion, thrombin-activated) chain 1: ATRRYYLGAVELSWDYMQSDLGELPVDARFPPRVPKSFPFNTSVVYKKTLFVEFTDHLFNIAKPRPPWMGLLGPTIQAEVYDTVVITLKNMASHPVSLHAVGVSYWKASEGAEYDDQTSQREKEDDKVFPGGSHTYVWQVLKENGPMASDPLCLTYSYLSHVDLVKDLNSGLIGALLVCREGSLAKEKTQTLHKFILLFAVFDEGKSWHSETKNSLMQDRDAASARAWPKMHTVNGYVNRSLPGLIGCHRKSVYWHVIGMGTTPEVHSIFLEGHTFLVRNHRQASLEISPITFLTAQTLLMDLGQFLLFCHISSHQHDGMEAYVKVDSCPEEPQLRMKNNEEAEDYDDDLTDSEMDVVRFDDDNSPSFIQIRSVAKKHPKTWVHYIAAEEEDWDYAPLVLAPDDRSYKSQYLNNGPQRIGRKYKKVRFMAYTDETFKTREAIQHESGILGPLLYGEVGDTLLIIFKNQASRPYNIYPHGITDVRPLYSRRLPKGVKHLKDFPILPGEIFKYKWTVTVEDGPTKSDPRCLTRYYSSFVNMERDLASGLIGPLLICYKESVDQRGNQIMSDKRNVILFSVFDENRSWYLTENIQRFLPNPAGVQLEDPEFQASNIMHSINGYVFDSLQLSVCLHEVAYWYILSIGAQTDFLSVFFSGYTFKHKMVYEDTLTLFPFSGETVFMSMENPGLWILGCHNSDFRNRGMTALLKVSSCDKNTGDYYEDSYEDISAYLLSKNNAIEPR chain 2: SFQKKTRHYFIAAVERLWDYGMSSSPHVLRNRAQSGSVPQFKKVVFQEFTDGSFTQPLYRGELNEHLGLLGPYIRAEVEDNIMVTFRNQASRPYSFYSSLISYEEDQRQGAEPRKNFVKPNETKTYFWKVQHHMAPTKDEFDCKAWAYFSDVDLEKDVHSGLIGPLLVCHTNTLNPAHGRQVTVQEFALFFTIFDETKSWYFTENMERNCRAPCNIQMEDPTFKENYRFHAINGYIMDTLPGLVMAQDQRIRWYLLSMGSNENIHSIHFSGHVFTVRKKEEYKMALYNLYPGVFETVEMLPSKAGIWRVECLIGEHLHAGMSTLFLVYSNKCQTPLGMASGHIRDFQITASGQYGQWAPKLARLHYSGSINAWSTKEPFSWIKVDLLAPMIIHGIKTQGARQKFSSLYISQFIIMYSLDGKKWQTYRGNSTGTLMVFFGNVDSSGIKHNIFNPPIIARYIRLHPTHYSIRSTLRMELMGCDLNSCSMPLGMESKAISDAQITASSYFTNMFATWSPSKARLHLQGRSNAWRPQVNNPKEWLQVDFQKTMKVTGVTTQGVKSLLTSMYVKEFLISSSQDGHQWTLFFQNGKVKVFQGNQDSFTPVVNSLDPPLLTRYLRIHPQSWVHQIALRMEVLGCEAQDLY", "Kd": 5.5}, {"binder": "SC rFVIIIFc (thrombin-activated) (protein, single-chain Fc fusion, thrombin-activated) chain 1: ATRRYYLGAVELSWDYMQSDLGELPVDARFPPRVPKSFPFNTSVVYKKTLFVEFTDHLFNIAKPRPPWMGLLGPTIQAEVYDTVVITLKNMASHPVSLHAVGVSYWKASEGAEYDDQTSQREKEDDKVFPGGSHTYVWQVLKENGPMASDPLCLTYSYLSHVDLVKDLNSGLIGALLVCREGSLAKEKTQTLHKFILLFAVFDEGKSWHSETKNSLMQDRDAASARAWPKMHTVNGYVNRSLPGLIGCHRKSVYWHVIGMGTTPEVHSIFLEGHTFLVRNHRQASLEISPITFLTAQTLLMDLGQFLLFCHISSHQHDGMEAYVKVDSCPEEPQLRMKNNEEAEDYDDDLTDSEMDVVRFDDDNSPSFIQIRSVAKKHPKTWVHYIAAEEEDWDYAPLVLAPDDRSYKSQYLNNGPQRIGRKYKKVRFMAYTDETFKTREAIQHESGILGPLLYGEVGDTLLIIFKNQASRPYNIYPHGITDVRPLYSRRLPKGVKHLKDFPILPGEIFKYKWTVTVEDGPTKSDPRCLTRYYSSFVNMERDLASGLIGPLLICYKESVDQRGNQIMSDKRNVILFSVFDENRSWYLTENIQRFLPNPAGVQLEDPEFQASNIMHSINGYVFDSLQLSVCLHEVAYWYILSIGAQTDFLSVFFSGYTFKHKMVYEDTLTLFPFSGETVFMSMENPGLWILGCHNSDFRNRGMTALLKVSSCDKNTGDYYEDSYEDISAYLLSKNNAIEPR chain 2: SFQKKTRHYFIAAVERLWDYGMSSSPHVLRNRAQSGSVPQFKKVVFQEFTDGSFTQPLYRGELNEHLGLLGPYIRAEVEDNIMVTFRNQASRPYSFYSSLISYEEDQRQGAEPRKNFVKPNETKTYFWKVQHHMAPTKDEFDCKAWAYFSDVDLEKDVHSGLIGPLLVCHTNTLNPAHGRQVTVQEFALFFTIFDETKSWYFTENMERNCRAPCNIQMEDPTFKENYRFHAINGYIMDTLPGLVMAQDQRIRWYLLSMGSNENIHSIHFSGHVFTVRKKEEYKMALYNLYPGVFETVEMLPSKAGIWRVECLIGEHLHAGMSTLFLVYSNKCQTPLGMASGHIRDFQITASGQYGQWAPKLARLHYSGSINAWSTKEPFSWIKVDLLAPMIIHGIKTQGARQKFSSLYISQFIIMYSLDGKKWQTYRGNSTGTLMVFFGNVDSSGIKHNIFNPPIIARYIRLHPTHYSIRSTLRMELMGCDLNSCSMPLGMESKAISDAQITASSYFTNMFATWSPSKARLHLQGRSNAWRPQVNNPKEWLQVDFQKTMKVTGVTTQGVKSLLTSMYVKEFLISSSQDGHQWTLFFQNGKVKVFQGNQDSFTPVVNSLDPPLLTRYLRIHPQSWVHQIALRMEVLGCEAQDLY", "Kd": 4.1}]}]}
